Data on 12 molecules can be found in patent US10808024B2, “Antibodies against immunocomplexes comprising cyanobacterial cyclic peptide hepatotoxins” (priority 2015, dated 2020).

B1: SA51F6: group-specific anti-immunocomplex antibody (antibody, V domains shown)
VH: EVQLLESGGGLVQPGGSLRLSCAASGFTFSDYWMHWVRQAPGKGLEWVSEIWYSSGYTNYADSVKGRFTISRDNSKNTLYLQMNSLRAEDTAVYYCARDAFPWDVFDYWGQGTLVTVSS
VL: EIVLTQSPGTLSLSPGERATLSCRASQSVSSSYLAWYQQKPGQAPRLLIYGASSRATGVPDRFSGSGSGTDFTLTISRLEPEDFAVYYCQQSSSTPWTFGQGTKVEIKRT
modifications: Clone SA51F6; DOMAIN (31)..(35) CDR1; DOMAIN (50)..(66) CDR2; DOMAIN (99)..(108) CDR3; DOMAIN (24)..(35) CDR1; DOMAIN (51)..(57) CDR2; DOMAIN (90)..(98) CDR3
B2: SA41F2: XR subgroup-specific anti-IC antibody (antibody, V domains shown)
VH: EVQLLESGGGLVQPGGSLRLSCAASGFTFSNYGMHWVRQAPGKGLEWVSEIDYVDGNTYYADSVKGRFTISRDNSKNTLYLQMNSLRAEDTAVYYCAREVYAHGIAAFDYWGQGTLVTVSS
VL: EIVLTQSPGTLSLSPGERATLSCRASQSVSSSALAWYQQKPGQAPRLLIYGASSRATGVPDRFSGSGSGTDFTLTISRLEPEDFAVYYCQQYSSTPWTFGQGTKVEIKRT
modifications: Clone SA41F2; DOMAIN (31)..(35) CDR1; DOMAIN (50)..(66) CDR2; DOMAIN (99)..(110) CDR3; DOMAIN (24)..(35) CDR1; DOMAIN (51)..(57) CDR2; DOMAIN (90)..(98) CDR3
B3: SA42E10: MC subgroup-specific anti-IC binder (antibody, V domains shown)
VH: EVQLLESGGGLVQPGGSLRLSCAASGFTFSDYAMHWVRQAPGKGLEWVSSIIPYTGTTDYADSVKGRFTISRDNSKNTLYLQMNSLRAEDTAVYYCARTDDLIGHYDVYYYFDYWGQGTLVTVSS
VL: EIVLTQSPGTLSLSPGERATLSCRASQSVSSSYLAWYQQKPGQAPRLLIYGASSRATGVPDRFSGSGSGTDFTLTISRLEPEDFAVYYCQQSSSLPWTFGQGTKVEIKRT
modifications: Clone SA42E10; DOMAIN (31)..(35) CDR1; DOMAIN (50)..(66) CDR2; DOMAIN (99)..(114) CDR3; DOMAIN (24)..(35) CDR1; DOMAIN (51)..(57) CDR2; DOMAIN (90)..(98) CDR3
B4: SA57A3: subgroup specific anti-IC antibody with MC-LR preferring specificity (antibody, V domains shown)
VH: EVQLLESGGGLVQPGGSLRLSCAASGFTFSDYYMHWVRQAPGKGLEWVSYINTYDGNTDYADSVKGRFTISRDNSKNTLYLQMNSLRAEDTAVYYCARYYNPYTRRRVFDYWGQGTLVTVSS
VL: EIVLTQSPGTLSLSPGERATLSCRASQSVSSSNLAWYQQKPGQAPRLLIYGASSRATGVPDRFSGSGSGTDFTLTISRLEPEDFAVYYCQQSSSYPWTFGQGTKVEIKRT
modifications: Clone SA57A3; DOMAIN (31)..(35) CDR1; DOMAIN (50)..(66) CDR2; DOMAIN (99)..(111) CDR3; DOMAIN (24)..(35) CDR1; DOMAIN (51)..(57) CDR2; DOMAIN (90)..(98) CDR3
B5: SA52C2: MC subgroup-specific anti-IC binder (antibody, V domains shown)
VH: EVQLLESGGGLVQPGGSLRLSCAASGFTFSSDVMHWVRQAPGKGLEWVSEIDPSDGTTNYADSVKGRFTISRDNSKNTLYLQMNSLRAEDTAVYYCARSYLDWPLDVWGQGTLVTVSS
VL: EIVLTQSPGTLSLSPGERATLSCRASQSVSSSNLAWYQQKPGQAPRLLIYGASSRATGVPDRFSGSGSGTDFTLTISRLEPEDFAVYYCQQMHSTPWTFGQGTKVEIKRT
modifications: Clone SA52C2; DOMAIN (31)..(35) CDR1; DOMAIN (50)..(66) CDR2; DOMAIN (99)..(107) CDR3; DOMAIN (24)..(35) CDR1; DOMAIN (51)..(57) CDR2; DOMAIN (90)..(98) CDR3
B6: SA41A5: MC-XR subgroup-specific anti-IC antibody (antibody, V domains shown)
VH: EVQLLESGGGLVQPGGSLRLSCAASGFTFSNYYMHWVRQAPGKGLEWVSEINYDGETDYADSVKGRFTISRDNSKNTLYLQMNSLRAEDTAVYYCARDGFWYGTAFDYWGQGTLVTVSS
VL: EIVLTQSPGTLSLSPGERATLSCRASQSVSSSALAWYQQKPGQAPRLLIYGASSRATGVPDRFSGSGSGTDFTLTISRLEPEDFAVYYCQQMHSTPWTFGQGTKVEIKRT
modifications: Clone SA41A5; DOMAIN (31)..(35) CDR1; DOMAIN (50)..(66) CDR2; DOMAIN (99)..(108) CDR3; DOMAIN (24)..(35) CDR1; DOMAIN (51)..(57) CDR2; DOMAIN (90)..(98) CDR3
B7: SA51H4: MC-XR subgroup-specific anti-IC antibody (antibody, V domains shown)
VH: EVQLLESGGGLVQPGGSLRLSCAASGFTFSDYWMHWVRQAPGKGLEWVSEIWPYDGYTNYADSVKGRFTISRDNSKNTLYLQMNSLRAEDTAVYYCARDPGPEGVFDYWGQGTLVTVSS
VL: EIVLTQSPGTLSLSPGERATLSCRASQSVSSSNLAWYQQKPGQAPRLLIYGASSRATGVPDRFSGSGSGTDFTLTISRLEPEDFAVYYCQQSSSYPWTFGQGTKVEIKRT
modifications: Clone SA51H4; DOMAIN (31)..(35) CDR1; DOMAIN (50)..(66) CDR2; DOMAIN (99)..(108) CDR3; DOMAIN (24)..(35) CDR1; DOMAIN (51)..(57) CDR2; DOMAIN (90)..(98) CDR3
B8: SA33D5: XR subgroup-specific anti-IC antibody (antibody, V domains shown)
VH: EVQLLESGGGLVQPGGSLRLSCAASGFTFSSDVMHWVRQAPGKGLEWVSEIDPNDGSTRYADSVKGRFTISRDNSKNTLYLQMNSLRAEDTAVYYCAREYGAVSWSVVVFDYWGQGTLVTVSS
VL: EIVLTQSPGTLSLSPGERATLSCRASQSVSSSNLAWYQQKPGQAPRLLIYGASSRATGVPDRFSGSGSGTDFTLTISRLEPEDFAVYYCQQSSSYPWTFGQGTKVEIKRT
modifications: Clone SA33D5; DOMAIN (31)..(35) CDR1; DOMAIN (50)..(66) CDR2; DOMAIN (99)..(112) CDR3; DOMAIN (24)..(35) CDR1; DOMAIN (51)..(57) CDR2; DOMAIN (90)..(98) CDR3
B9: SA56D5: subgroup specific anti-IC antibody with MC-LR preferring specificity (antibody, V domains shown)
VH: EVQLLESGGGLVQPGGSLRLSCAASGFTFSDYYMHWVRQAPGKGLEWVSYIDGNGGYTDYADSVKGRFTISRDNSKNTLYLQMNSLRAEDTAVYYCARYWFDSSYKHRYFDYWGQGTLVTVSS
VL: EIVLTQSPGTLSLSPGERATLSCRASQSVSSSNLAWYQQKPGQAPRLLIYGASSRATGVPDRFSGSGSGTDFTLTISRLEPEDFAVYYCQQSSSYPWTFGQGTKVEIKRT
modifications: Clone SA56D5; DOMAIN (31)..(35) CDR1; DOMAIN (50)..(66) CDR2; DOMAIN (99)..(112) CDR3; DOMAIN (24)..(35) CDR1; DOMAIN (51)..(57) CDR2; DOMAIN (90)..(98) CDR3
B10: SA59G2: variant-specific anti-IC antibody, MC-LR (antibody, V domains shown)
VH: EVQLLESGGGLVQPGGSLRLSCAASGFTFSNYYMHWVRQAPGKGLEWVSYIDPVGGETYYADSVKGRFTISRDNSKNTLYLQMNSLRAEDTAVYYCARYYYWGYRAFDYWGQGTLVTVSS
VL: EIVLTQSPGTLSLSPGERATLSCRASQSVSSSALAWYQQKPGQAPRLLIYGASSRATGVPDRFSGSGSGTDFTLTISRLEPEDFAVYYCQQSSSLPWTFGQGTKVEIKRT
modifications: Clone SA59G2; DOMAIN (31)..(35) CDR1; DOMAIN (51)..(66) CDR2; DOMAIN (99)..(109) CDR3; DOMAIN (24)..(35) CDR1; DOMAIN (51)..(57) CDR2; DOMAIN (90)..(98) CDR3
B11: SA52B4: XR subgroup-specific anti-IC antibody (antibody, V domains shown)
VH: EVQLLESGGGLVQPGGSLRLSCAASGFTFSDYSMHWVRQAPGKGLEWVSEIWTNTGYTNYADSVKGRFTISRDNSKNTLYLQMNSLRAEDTAVYYCARESWEWFSIVFDYWGQGTLVTVSS
VL: EIVLTQSPGTLSLSPGERATLSCRASQSVSSSALAWYQQKPGQAPRLLIYGASSRATGVPDRFSGSGSGTDFTLTISRLEPEDFAVYYCQQYSSTPWTFGQGTKVEIKRT
modifications: Clone SA52B4; DISULFID (31)..(35) CDR1; DISULFID (50)..(66) CDR2; DISULFID (99)..(110) CDR3; DOMAIN (24)..(35) CDR1; DOMAIN (51)..(57) CDR2; DOMAIN (90)..(98) CDR3
B12: SA60A1: subgroup specific anti-IC antibody with MC-LR preferring specificity (antibody, V domains shown)
VH: EVQLLESGGGLVQPGGSLRLSCAASGFTFSPYYMHWVRQAPGKGLEWVSYITPYDGYTDYADSVKGRFTISRDNSKNTLYLQMNSLRAEDTAVYYCARYSYVGSVRTRVFDYWGQGTLVTVSS
VL: EIVLTQSPGTLSLSPGERATLSCRASQSVSSSNLAWYQQKPGQAPRLLIYGASSRATGVPDRFSGSGSGTDFTLTISRLEPEDFAVYYCQQSYSYPWTFGQGTKVEIKRT
modifications: Clone SA60A1; DOMAIN (31)..(35) CDR1; DOMAIN (50)..(66) CDR2; DOMAIN (99)..(112) CDR3; DOMAIN (24)..(35) CDR1; DOMAIN (51)..(57) CDR2; DOMAIN (90)..(98) CDR3

The assay deals with immunocomplexes of CCPH variants and anti-Adda mAb. The assay is described as follows: Screening and cross-reactivity studies of anti-IC scFv-AP binders, specificity class. In kind it is binding.
As for B1, the “Specificity of anti-IC antibody (CCPH immunocomplexes recognized)” value (“Specificity of anti-IC antibody” for short) is “group-specific”.

As to B2, the “Specificity of anti-IC antibody” value is on record as “specific for a subgroup XR”.

As to B3, the “Specificity of anti-IC antibody” value is on record as “MC subgroup-specific”.

B4: the “Specificity of anti-IC antibody” value is “MC-LR preferring specificity”.

Take B5: the “Specificity of anti-IC antibody” value is reported as “MC subgroup-specific”.

In the case of B6, the “Specificity of anti-IC antibody” value is recorded as “specific for a subgroup MC-XR”.

With B7, the “Specificity of anti-IC antibody” value is “specific for a subgroup MC-XR”.

On to B8, for which the “Specificity of anti-IC antibody” value was “specific for a subgroup XR”.

Regarding B9, the “Specificity of anti-IC antibody” value is reported as “MC-LR preferring specificity”.

Regarding B10, the “Specificity of anti-IC antibody” value was “recognize immunocomplexes comprising MC-LR”.

In the case of B11, the “Specificity of anti-IC antibody” value is reported as “specific for a subgroup XR”.

Consider B12, for which the “Specificity of anti-IC antibody” value is on record as “MC-LR preferring specificity”.
